Assay results reported in patent US20160368974A1 (UMC UTRECHT HOLDING B V, published 2016).
Ends that are not written are not given here.

T1: peptide …
T1 sequence (peptide): TYSSPEDAIHELFP

T2: peptide …
T2 sequence (peptide): TYSSPEDGIHELAP

T3: peptide …
T3 sequence (peptide): TYSSPEDGAHELFP

T4: peptide TYASPEDGIHELFP (also: covalently linked to a PEPSCAN card)
T4 construct: also called replaced amino acid S (first)
T4 peptide: TYASPEDGIHELFP

T5: peptide TYSSPEDGIHELFA (also: covalently linked to a PEPSCAN card)
T5 construct: also called replaced amino acid P (second)
T5 peptide: TYSSPEDGIHELFA

T6: peptide TYSSPEAGIHELFP (also: covalently linked to a PEPSCAN card)
T6 construct: also called replaced amino acid D
T6 peptide: TYSSPEAGIHELFP

T7: peptide TYSSPEDGIHEAFP (also: covalently linked to a PEPSCAN card)
T7 construct: also called replaced amino acid L
T7 peptide: TYSSPEDGIHEAFP

T8: peptide TASSPEDGIHELFP (also: covalently linked to a PEPSCAN card)
T8 construct: also called replaced amino acid Y
T8 peptide: TASSPEDGIHELFP

T9: peptide TYSAPEDGIHELFP (also: covalently linked to a PEPSCAN card)
T9 construct: also called replaced amino acid S (second)
T9 peptide: TYSAPEDGIHELFP

T10: peptide TYSSPEDGIHELFP (also: covalently linked to a PEPSCAN card)
T10 construct: Synthetic peptide covalently linked to a PEPSCAN card; parent peptide of the alanine scan; also called replaced amino acid: none
T10 peptide: TYSSPEDGIHELFP

T11: peptide AYSSPEDGIHELFP (also: covalently linked to a PEPSCAN card)
T11 construct: also called replaced amino acid T
T11 peptide: AYSSPEDGIHELFP

T12: peptide TYSSPEDGIHALFP (also: covalently linked to a PEPSCAN card)
T12 construct: also called replaced amino acid E (second)
T12 peptide: TYSSPEDGIHALFP

T13: peptide TYSSPEDGIAELFP (also: covalently linked to a PEPSCAN card)
T13 construct: also called replaced amino acid H
T13 peptide: TYSSPEDGIAELFP

T14: peptide TYSSPADGIHELFP (also: covalently linked to a PEPSCAN card)
T14 construct: also called replaced amino acid E (first)
T14 peptide: TYSSPADGIHELFP

T15: peptide TYSSAEDGIHELFP (also: covalently linked to a PEPSCAN card)
T15 construct: also called replaced amino acid P (first)
T15 peptide: TYSSAEDGIHELFP

T16: peptide …
T16 sequence (peptide): TYSSPEDGIHEAFP


Columns and labels:
Assay in all cases: PEPSCAN-based ELISA, peptide linked to card
[1] = biological target: T1, peptide …
[2] = biological target: T2, peptide …; remark: listed apart in the source
[3] = biological target: T3, peptide …; remark: listed apart in the source
peptide TYASPEDGIHELFP = biological target: T4, peptide TYASPEDGIHELFP
Description: (§1) The binding of antibody to each peptide was tested in a PEPSCAN-based ELISA. The 455-well credit card format polypropylene cars containing the covalently linked peptides were incubated with primary antibody solution consisting of 0.05 micrograms antibody/mL diluted in blocking solution, i.e., 4% horse serum, 5% ovalbumin (w/v) in PBS/0.1% Tween. After washing, the peptides were incubated with a 1/1000 dilution of antibody peroxidase conjugate for one hour at 25° C. After washing, the peroxidase substrate 2,2′-azino-di-3-ehtylbenzthiazoline sulfonate (ABTS) and 2 microliters of 3 percent H₂O₂ were added. After one hour, the colour development was measured. The colour development was quantified with a charge coupled device (CCD)-camera and an image processing system (as firstly described in Slootstra et al. Mol Divers. 1996 February; 1(2):87-96).
(§2) Peptide synthesis, screening assays and data calculation for alanine-scan of fibronectin-EDA epitope are performed as described in Example 1. Peptides based on […] were synthesized wherein in each peptide one amino acid is replaced by an alanine. The peptides were tested for binding by antibodies 27A12.70, 29E7.35, 17G8.72 and 42H11.51.

peptide TYSSPEDGIHELFA = biological target: T5, peptide TYSSPEDGIHELFA
Description: as §1, §2

peptide TYSSPEAGIHELFP = biological target: T6, peptide TYSSPEAGIHELFP
Description: as §1, §2

peptide TYSSPEDGIHEAFP = biological target: T7, peptide TYSSPEDGIHEAFP
Description: as §1, §2

peptide TASSPEDGIHELFP = biological target: T8, peptide TASSPEDGIHELFP
Description: as §1, §2

peptide TYSAPEDGIHELFP = biological target: T9, peptide TYSAPEDGIHELFP
Description: as §1, §2

peptide TYSSPEDGIHELFP = biological target: T10, peptide TYSSPEDGIHELFP
Description: as §1, §2

peptide AYSSPEDGIHELFP = biological target: T11, peptide AYSSPEDGIHELFP
Description: as §1, §2

peptide TYSSPEDGIHALFP = biological target: T12, peptide TYSSPEDGIHALFP
Description: as §1, §2

peptide TYSSPEDGIAELFP = biological target: T13, peptide TYSSPEDGIAELFP
Description: as §1, §2

peptide TYSSPADGIHELFP = biological target: T14, peptide TYSSPADGIHELFP
Description: as §1, §2

peptide TYSSAEDGIHELFP = biological target: T15, peptide TYSSAEDGIHELFP
Description: as §1, §2

[4] = biological target: T16, peptide …; remark: listed apart in the source

| Antibody binding (arbitrary optical density units) (arbitrary optical density units) [1] | Antibody binding (arbitrary optical density units) (arbitrary optical density units) [2] | Antibody binding (arbitrary optical density units) (arbitrary optical density units) [3] | Antibody binding (arbitrary optical density units) (peptide TYASPEDGIHELFP) | Antibody binding (arbitrary optical density units) (peptide TYSSPEDGIHELFA) | Antibody binding (arbitrary optical density units) (peptide TYSSPEAGIHELFP) | Antibody binding (arbitrary optical density units) (peptide TYSSPEDGIHEAFP) | Antibody binding (arbitrary optical density units) (peptide TASSPEDGIHELFP) | Antibody binding (arbitrary optical density units) (peptide TYSAPEDGIHELFP) | Antibody binding (arbitrary optical density units) (peptide TYSSPEDGIHELFP) | Antibody binding (arbitrary optical density units) (peptide AYSSPEDGIHELFP) | Antibody binding (arbitrary optical density units) (peptide TYSSPEDGIHALFP) | Antibody binding (arbitrary optical density units) (peptide TYSSPEDGIAELFP) | Antibody binding (arbitrary optical density units) (peptide TYSSPADGIHELFP) | Antibody binding (arbitrary optical density units) (peptide TYSSAEDGIHELFP) | Antibody binding (arbitrary optical density units) (arbitrary optical density units) [4] | Binder |
| --- | --- | --- | --- | --- | --- | --- | --- | --- | --- | --- | --- | --- | --- | --- | --- | --- |
| 89 | 106 | 66 | 2500 arbitrary optical density units | 2160 arbitrary optical density units | 2650 arbitrary optical density units | 1550 arbitrary optical density units | 2670 arbitrary optical density units | 2100 arbitrary optical density units | 2090 arbitrary optical density units | 2150 arbitrary optical density units | 2100 arbitrary optical density units | 2560 arbitrary optical density units | 2480 arbitrary optical density units | 2090 arbitrary optical density units |  | antibody 17G8.72 (antibody, V domains shown, Monoclonal antibody against the EDA domain of fibronectin-EDA; also called 17G8.7VL) VH: DVQLQESGPDLVKPSQSLSLTCTVTGYSIASGYSWHWIRQFPGNKLEWMGYIHFSGSANYNPSLKSRISITRDTSKNQFFLQLNSVTTEDTATYYCASEARGYFDYWGQGTTLTVSS VL: DVLMTQTPLSLPVSLGDQASISCRSSQSIVRSNGNTYLTWYLQKPGQSPKLLIYKVSNRFSGVPDRFSGSGSGTDFTLKISRVEAEDLGVYFCFQGSHVPPTFGSGTKLEIKR |
| 122 | 249 | 91 | 2720 arbitrary optical density units | 2600 arbitrary optical density units | 2750 arbitrary optical density units | 1780 arbitrary optical density units | 2790 arbitrary optical density units | 2680 arbitrary optical density units | 2680 arbitrary optical density units | 2710 arbitrary optical density units | 2200 arbitrary optical density units | 2400 arbitrary optical density units | 2690 arbitrary optical density units | 2710 arbitrary optical density units |  | antibody 27A12.70 (antibody, V domains shown, Murine monoclonal antibody against the EDA domain of fibronectin-EDA) VH: DVQLQESGPDLVKPSQSLSLTCTVTGYSITSGYSWHWIRQFPGNKLEWMGYIHYSGIANYNPSLKSRISITRDTSKNHFFLQLNSVTTEDTATYYCATEKTGFFDYWGQGTTLTVSS VL: DVVMTQTPLSLPVSLGDQASISCRSSQSLVHSNGNTYLHWYLQKPGQSPKLLIYKVSNRFSGVPDRFSGSGSGTDFTLKISRVEAEDLGVYFCSQSAHVPPTFGGGTKLEIKR |
| 81 | 124 | 74 | 2740 arbitrary optical density units | 2600 arbitrary optical density units | 2720 arbitrary optical density units |  | 2840 arbitrary optical density units | 2630 arbitrary optical density units | 2750 arbitrary optical density units | 2780 arbitrary optical density units | 302 arbitrary optical density units | 1800 arbitrary optical density units | 2630 arbitrary optical density units | 2660 arbitrary optical density units | 194 | antibody 29E7.35 (antibody, V domains shown, Monoclonal antibody against the EDA domain of fibronectin-EDA) VH: AVQLQESGPDLVKPSHSLSLTCTVTGYSITSGYSWHWIRQFPGNKLEWMGYIHYSGSANYNPSLKSRFSITRDTSKNQFFLQLNSVTTEDTATYYCATEKTGFFDYWGQGTTLTVSS VL: DVVMTQTPLSLPVSLGDQASISCRSSQSLVHSNGNTYLHWYLQKPGQSPKLLIYKVSNRFSGVPDRFSGSGSGTDFTLKISRVEAEDLGVYFCSQSAHVPPTFGGGTKLEIKR |
